The results in this text go back to PMC8322156, “Nuclear condensates of p300 formed though the structured catalytic core can act as a storage pool of p300 with reduced HAT activity” (Nature Communications, 2021).

For data set [1], the system named is p300 BRPHZ, SIRT2-deacetylated (~4 Kac, outside the AIL) (human). The data set can be described thus: EMSA. The following applies: EMSA: 20 mM Tris-HCl pH 7.5, 50 mM NaCl (75 mM for NCP), 2 mM DTT, 5 min; 5% PAGE in 0.2x TBE (DNA) or 0.2x TB (NCP), 100 V, on ice; SYBR Gold. Background: Mobility shift assays separate free from complexed probe on a gel.
The target in data set [2] is T1, SIRT2-treated p300_(BRPHZ) (catalytic core BD-RING-PHD-HAT-ZZ, aa 1035-1720 of p300), hypoacetylated (human, UniProt Q09472 1035-1720, on average 4 acetyl-lysines outside the AIL left after SIRT2 treatment (sites not given)).
T1 construct: human p300, BD-RING-PHD-HAT-ZZ region (BRPHZ), amino acids 1035-1720; Heterogeneously acetylated; Vector pGEX-6P-1; also called SIRT2-deacetylated p300BRPHZ; deacetylated p300
T1 sequence (looked up): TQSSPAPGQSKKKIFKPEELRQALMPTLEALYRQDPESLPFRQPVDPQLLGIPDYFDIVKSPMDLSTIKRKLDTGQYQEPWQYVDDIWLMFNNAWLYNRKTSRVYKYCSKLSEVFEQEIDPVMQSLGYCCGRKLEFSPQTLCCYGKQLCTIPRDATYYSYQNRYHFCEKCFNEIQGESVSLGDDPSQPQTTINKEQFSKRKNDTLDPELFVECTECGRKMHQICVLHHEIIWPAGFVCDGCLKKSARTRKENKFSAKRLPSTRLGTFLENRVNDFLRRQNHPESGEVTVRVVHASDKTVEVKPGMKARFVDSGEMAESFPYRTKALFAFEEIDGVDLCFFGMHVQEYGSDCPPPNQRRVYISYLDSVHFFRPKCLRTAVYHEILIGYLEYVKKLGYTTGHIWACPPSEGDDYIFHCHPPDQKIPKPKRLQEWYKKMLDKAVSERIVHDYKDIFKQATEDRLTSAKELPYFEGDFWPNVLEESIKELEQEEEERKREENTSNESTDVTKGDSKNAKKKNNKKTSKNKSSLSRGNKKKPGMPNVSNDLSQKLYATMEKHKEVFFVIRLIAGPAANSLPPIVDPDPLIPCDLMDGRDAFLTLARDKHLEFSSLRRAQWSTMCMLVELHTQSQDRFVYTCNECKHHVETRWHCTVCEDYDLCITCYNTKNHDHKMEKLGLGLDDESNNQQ
The data set can be described thus: recruitment of a labelled peptide into condensates (confocal microscopy); 13 uM SIRT2-treated p300 condensates (PEG-induced) mixed with 6 uM FAM-labeled H3 tail (aa 1-12); FAM alone as control. The following applies: both partners purified.

No end group written: not given here.

Usually Kd stands for a measure of binding affinity in units of concentration. Read a high Kd as a looser complex. As to 601 DNA 147 bp, the Kd in data set [1] was 300 nM.

B1: fluorescein (FAM)-labeled histone H3 tail peptide (residues 1-12 of H3) (peptide, UniProt P68431 2-13, looked up)
peptide: ARTKQTARKSTG
modifications: also: fluorescein (FAM) label, position not given here
notes: histone H3 tail, residues 1-12, unmodified; also called FAM-H3; FAM-labeled H3_(1-12) peptide
As for B1, the binding result in data set [2] is given as “binds”.
